Reference: US20200216522A1 (DENALI THERAPEUTICS, published 2020)

Key:
[1] = biological target: T1, Peptide_034 (human); test: peptide array
T1 peptide: ANATRIPAKTPPAPK
How it was run: (§1)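 Epitope mapping used slides carrying triplicate 15-residue peptides, offset by 5 aa, tiling full-length human Tau 2N4R. Chimeric IgG at 5 μg/mL or murine IgG at 30 μg/mL in 3% BSA-TBST (pH 7.5) bound for 2 h at RT; Alexa Fluor secondaries (568 or 647 nm channel) applied 1 h, then imaged.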

[2] = biological target: T2, Peptide_077 (human); test: peptide array
T2 peptide: NAKAKTDHGAEIVYK
How it was run: as §1

[3] = biological target: T3, Peptide_017 (human); test: peptide array
T3 peptide: DEGAPGKQAAAQPHT
How it was run: as §1

[4] = biological target: T4, Peptide_052 (human); test: peptide array
T4 peptide: VKSKIGSTENLKHQP
How it was run: as §1

[5] = biological target: T5, Peptide_029 (human); test: peptide array
T5 peptide: KAKGADGKTKIATPR
How it was run: as §1

[6] = biological target: T6, Peptide_026 (human); test: peptide array
T6 peptide: RMVSKSKDGTGSDDK
How it was run: as §1

[7] = biological target: T7, Peptide_022 (human); test: peptide array
T7 peptide: AGIGDTPSLEDEAAG
How it was run: as §1

[8] = biological target: T8, Peptide_014 (human); test: peptide array
T8 peptide: AKSTPTAEDVTAPLV
How it was run: as §1

[9] = biological target: T9, Peptide_003 (human); test: peptide array
T9 peptide: MEDHAGTYGLGDRKD
How it was run: as §1

[10] = biological target: T10, Peptide_015 (human); test: peptide array
T10 peptide: TAEDVTAPLVDEGAP
How it was run: as §1

[11] = biological target: T11, Peptide_050 (human); test: peptide array
T11 peptide: APVPMPDLKNVKSKI
How it was run: as §1

[12] = biological target: T12, Peptide_076 (human); test: peptide array
T12 peptide: LTFRENAKAKTDHGA
How it was run: as §1

[13] = biological target: T13, Peptide_081 (human); test: peptide array
T13 peptide: GDTSPRHLSNVSSTG
How it was run: as §1

[14] = biological target: T14, Peptide_027 (human); test: peptide array
T14 peptide: SKDGTGSDDKKAKGA
How it was run: as §1

[15] = biological target: T15, Peptide_083 (human); test: peptide array
T15 peptide: VSSTGSIDMVDSPQL
How it was run: as §1

[16] = biological target: T16, Peptide_018 (human); test: peptide array
T16 peptide: GKQAAAQPHTEIPEG
How it was run: as §1

[17] = biological target: T17, Peptide_009 (human); test: peptide array
T17 peptide: AGLKESPLQTPTEDG
How it was run: as §1

[18] = biological target: T18, Peptide_008 (human); test: peptide array
T18 peptide: EGDTDAGLKESPLQT
How it was run: as §1

[19] = biological target: T19, Peptide_044 (human); test: peptide array
T19 peptide: PTPPTREPKKVAVVR
How it was run: as §1

[20] = biological target: T20, Peptide_028 (human); test: peptide array
T20 peptide: GSDDKKAKGADGKTK
How it was run: as §1

[21] = biological target: T21, Peptide_061 (human); test: peptide array
T21 peptide: PGGGSVQIVYKPVDL
How it was run: as §1

[22] = biological target: T22, Peptide_006 (human); test: peptide array
T22 peptide: QGGYTMHQDQEGDTD
How it was run: as §1

[23] = biological target: T23, Peptide_046 (human); test: peptide array
T23 peptide: VAVVRTPPKSPSSAK
How it was run: as §1

[24] = biological target: T24, Peptide_010 (human); test: peptide array
T24 peptide: SPLQTPTEDGSEEPG
How it was run: as §1

[25] = biological target: T25, Peptide_075 (human); test: peptide array
T25 peptide: IETHKLTFRENAKAK
How it was run: as §1

[26] = biological target: T26, Peptide_087 (human); test: peptide array
T26 peptide: TLADEVSASLAKQGL
How it was run: as §1

[27] = biological target: T27, full-length human Tau (Tau441; 2N4R), recombinant (human, UniProt P10636 1-758); test: Octet binning on biotin-r-Tau; competitor 1D10
T27 construct: made in E. coli, His6-Smt3 tag removed; biotinylated through amines for Octet and phage work; also called r-Tau; recombinant Tau
T27 sequence (P10636 other isoform, or with tags, fused parts or gaps limits assumed): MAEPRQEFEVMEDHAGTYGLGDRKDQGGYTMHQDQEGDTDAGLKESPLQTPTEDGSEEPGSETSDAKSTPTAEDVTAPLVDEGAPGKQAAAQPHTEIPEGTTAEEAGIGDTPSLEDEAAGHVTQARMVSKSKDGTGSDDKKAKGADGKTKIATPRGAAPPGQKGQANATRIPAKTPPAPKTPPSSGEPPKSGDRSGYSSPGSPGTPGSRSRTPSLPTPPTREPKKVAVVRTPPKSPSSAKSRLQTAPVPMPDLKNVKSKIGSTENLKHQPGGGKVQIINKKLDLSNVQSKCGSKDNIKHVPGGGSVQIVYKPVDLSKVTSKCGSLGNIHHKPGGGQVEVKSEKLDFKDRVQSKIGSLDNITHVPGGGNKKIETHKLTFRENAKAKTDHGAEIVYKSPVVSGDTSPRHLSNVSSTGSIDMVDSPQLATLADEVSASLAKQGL
Protocol: Epitope binning assays were performed using a FortéBio® Octet® RED384 instrument using FortéBio® Streptavidin biosensors. Biotinylated recombinant Tau was diluted to a concentration of 2 μg/mL in kinetic buffer (obtained from FortéBio®) and captured onto individual biosensors for 1 minute. A baseline was then established for 1 minute in kinetic buffer. The loaded biosensors were dipped into 10 μg/mL of the first chimeric IgG antibody until signal saturation, followed by dipping into 1 μg/mL of a second antibody. The binding for the second antibody was normalized to its total binding in the absence of the first antibody.

B1: chimeric IgG clone 1D10 (antibody, V domains shown)
VH: EVQLQQSGAELVRPGASVKLSCTASGFNIKDSLMHWMKQRPEQGLEWIGWIDPEDGETKYAPKFQDKATLTADTSSNAAYLQLSSLTSEDTAIYYCVRGDWDGGYWGQGTTLTVSS
VL: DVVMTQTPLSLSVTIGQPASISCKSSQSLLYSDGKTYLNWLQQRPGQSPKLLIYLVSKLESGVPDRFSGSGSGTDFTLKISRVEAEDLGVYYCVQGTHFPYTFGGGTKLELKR
notes: mouse-human chimeric IgG from HEK293
binding result [1]: no binding (tested: 5 ug/mL)
binding result [2]: no binding (tested: 5 ug/mL)
binding result [3]: no binding (tested: 5 ug/mL)
binding result [4]: binds
binding result [5]: no binding (tested: 5 ug/mL)
binding result [6]: no binding (tested: 5 ug/mL)
binding result [7]: no binding (tested: 5 ug/mL)
binding result [8]: no binding (tested: 5 ug/mL)
binding result [9]: no binding (tested: 5 ug/mL)
binding result [10]: no binding (tested: 5 ug/mL)
binding result [11]: no binding (tested: 5 ug/mL)
binding result [12]: no binding (tested: 5 ug/mL)
binding result [13]: no binding (tested: 5 ug/mL)
binding result [14]: no binding (tested: 5 ug/mL)
binding result [15]: no binding (tested: 5 ug/mL)
binding result [16]: no binding (tested: 5 ug/mL)
binding result [17]: no binding (tested: 5 ug/mL)
binding result [18]: no binding (tested: 5 ug/mL)
binding result [19]: no binding (tested: 5 ug/mL)
binding result [20]: no binding (tested: 5 ug/mL)
binding result [21]: no binding (tested: 5 ug/mL)
binding result [22]: no binding (tested: 5 ug/mL)
binding result [23]: no binding (tested: 5 ug/mL)
binding result [24]: no binding (tested: 5 ug/mL)
binding result [25]: no binding (tested: 5 ug/mL)
binding result [26]: no binding (tested: 5 ug/mL)
normalized binding of second antibody [27]: -0.05

B2: chimeric IgG clone 1G7 (antibody, V domains shown)
VH: EVQLQQSGAEVVRPGASVKLSCTTSGFNIKDSLMHWLKQRPEQGLEWIGWIDPEDGETKYAPKFQDKATITADTSSNTAYLQLSSLTSGDTAIYYCARRDWEGPWGQGTLVTVSA
VL: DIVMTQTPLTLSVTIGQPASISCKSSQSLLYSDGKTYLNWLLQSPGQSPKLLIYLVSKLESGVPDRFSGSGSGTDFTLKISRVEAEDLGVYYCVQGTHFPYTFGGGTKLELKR
notes: as for B1
binding result [1]: no binding (tested: 5 ug/mL)
binding result [2]: no binding (tested: 5 ug/mL)
binding result [3]: no binding (tested: 5 ug/mL)
binding result [4]: binds
binding result [5]: no binding (tested: 5 ug/mL)
binding result [6]: no binding (tested: 5 ug/mL)
binding result [7]: no binding (tested: 5 ug/mL)
binding result [8]: no binding (tested: 5 ug/mL)
binding result [9]: no binding (tested: 5 ug/mL)
binding result [10]: no binding (tested: 5 ug/mL)
binding result [11]: no binding (tested: 5 ug/mL)
binding result [12]: no binding (tested: 5 ug/mL)
binding result [13]: no binding (tested: 5 ug/mL)
binding result [14]: no binding (tested: 5 ug/mL)
binding result [15]: no binding (tested: 5 ug/mL)
binding result [16]: no binding (tested: 5 ug/mL)
binding result [17]: no binding (tested: 5 ug/mL)
binding result [18]: no binding (tested: 5 ug/mL)
binding result [19]: no binding (tested: 5 ug/mL)
binding result [20]: no binding (tested: 5 ug/mL)
binding result [21]: no binding (tested: 5 ug/mL)
binding result [22]: no binding (tested: 5 ug/mL)
binding result [23]: no binding (tested: 5 ug/mL)
binding result [24]: no binding (tested: 5 ug/mL)
binding result [25]: no binding (tested: 5 ug/mL)
binding result [26]: no binding (tested: 5 ug/mL)
normalized binding of second antibody [27]: -0.12
